Laboratory results reported in paper PMC8209050 (Nature Communications, 2021).

Biological target: T1, SARS-CoV-2 Spike receptor binding domain (RBD), wild type, His-tagged (SARS-CoV-2, UniProt P0DTC2)
Experiment: not given
Conditions: not given

| Binder | Kd [nM] |
| --- | --- |
| 254 (antibody, V domains shown) VH: EVQLLESGGGLVQPGGSLRLSCAASGFTFSSSAMHWVRQAPGKGLEWVSAIGTGGDTYYADSVKGRFTISRDNSKNTLYLQMNSLRAEDTAVYYCAREGDGYNFYFDYWGQGTLVTVSS VL: DIQMTQSPSSLSASVGDRVTITCRASQGISSYLAWYQQKPGKAPKLLIYDASSLQIGVPSRFSGSGSGTDFTLTISSLQPEDFATYYCLQSYSTPPWTFGQGTKVEIK | 127 |
| 178 (antibody, V domains shown) VH: QVQLVQSGAEVKKPGASVKVSCKASGYTFTDYHMHWVRQAPGQGLEWMGWINPNSGGTNYAQKFQGRVTMTRDTSTSTVYMELSSLRSEDTAVYYCARDISSWYEITKFDPWGQGTLVTVSS VL: EIVMTQSPATLSVSPGERATLSCKASQSVSGTYLAWYQQKPGQAPRLLIYGASTRATGIPARFSGSGSGTEFTLTISSLQSEDFAVYYCLQTHSYPPTFGQGTKVEIK | 72 |
| 120 (antibody, V domains shown) VH: QVQLVQSGAEVKKPGASVKVSCKASGYTFTSYDINWVRQAPGQGLEWMGMIDPSGGSTSYAQKFQGRVTMTRDTSTSTVYMELSSLRSEDTAVYYCAKDFGGGTRYDYWYFDLWGRGTLVTVSS VL: EIVMTQSPATLSVSPGERATLSCRASQSVSSRYLAWYQQKPGQAPRLLIYGASTRATGIPARFSGSGSGTEFTLTISSLQSEDFAVYYCQQYYTTPRTFGQGTRLEIK | 24 |
| 56 (antibody, V domains shown) VH: QVQLVQSGAEVKKPGASVKVSCKASGYTFTSYGISWVRQAPGQGLEWMGWISAYNGNTNYAQKLQGRVTMTRDTSTSTVYMELSSLRSEDTAVYYCARDIGPIDYWGQGTLVTVSS VL: DIQMTQSPSSLSASVGDRVTITCRASQGISSYLAWYQQKPGKAPKLLIYDASNLQSGVPSRFSGSGSGTDFTLTISSLQPEDFATYYCQQANSFPSTFGQGTKVEIK | 23 |
| 64 (antibody, V domains shown) VH: EVQLLESGGGLVQPGGSLRLSCAASGFPFSQHGMHWVRQAPGKGLEWVSAIDRSGSYIYYADSVKGRFTISRDNSKNTLYLQMNSLRAEDTAVYYCARDTYGGKVTYFDYWGQGTLVTVSS VL: DIQMTQSPSSLSASVGDRVTITCRASQGISSHLAWYQQKPGKAPKLLIYDASNLETGVPSRFSGSGSGTDFTLTISSLQPEDFATYYCQQTYSTPWTFGQGTKVEIK | 97 |
| 158 (antibody, V domains shown) VH: QVQLVQSGAEVKKPGASVKVSCKASGYTFTGYYMHWVRQAPGQGLEWMGWINPLNGGTNFAPKFQGRVTMTRDTSTSTVYMELSSLRSEDTAVYYCARDPGGSYSNDAFDIWGQGTLVTVSS VL: DIQMTQSPSSLSASVGDRVTITCRASQSISRYLNWYQQKPGKAPKLLIYDASNLESGVPSRFSGSGSGTDFTLTISSLQPEDFATYYCQQANSFPLTFGGGTKVDIK | 172 |
| 128 (antibody, V domains shown) VH: QVQLVQSGAEVKKPGASVKVSCKASGYTFTHYYMHWVRQAPGQGLEWMGIINPSSSSASYSQKFQGRVTMTRDTSTSTVYMELSSLRSEDTAVYYCARDGRYGSGSYPFDYWGQGTLVTVSS VL: DIQMTQSPSSLSASVGDRVTITCRASQNISRYLNWYQQKPGKAPKLLIYDASNLETGVPSRFSGSGSGTDFTLTISSLQPEDFATYYCQQANGFPPTFGQGTKLEIK | 57 |
| 349 (antibody, V domains shown) VH: EVQLLESGGGLVQPGGSLRLSCAASGFTFSNYGMHWVRQAPGKGLEWVSGISSAGSITNYADSVKGRFTISRDNSKNTLYLQMNSLRAEDTAVYYCAGNHAGTTVTSEYFQHWGQGTLVTVSS VL: DIQMTQSPSSLSASVGDRVTITCRASQSISSWLAWYQQKPGKAPKLLIYDTSNLETGVPSRFSGSGSGTDFTLTISSLQPEDFATYYCQQSYTTPWTFGQGTRLEIK | 74 |
| 160 (antibody, V domains shown) VH: QVQLVQSGAEVKKPGASVKVSCKASGYTFTGHDMHWVRQAPGQGLEWMGIINPSGGSTSYAQKFQGRVTMTRDTSTSTVYMELSSLRSEDTAVYYCARANSLRYYYGMDVWGQGTMVTVSS VL: DIQMTQSPSSLSASVGDRVTITCRASQSVSSWLAWYQQKPGKAPKLLIYAASSLQSGVPSRFSGSGSGTDFTLTISSLQPEDFATYYCQQGYTTPYTFGQGTKLEIK | 7.7 |
| 108 (antibody, V domains shown) VH: QVQLVQSGAEVKKPGASVKVSCKASGYIFSRYAIHWVRQAPGQGLEWMGWMNPISGNTDYAPNFQGRVTMTRDTSTSTVYMELSSLRSEDTAVYYCAKDGSQLAYLVEYFQHWGQGTLVTVSS VL: DIQMTQSPSSLSASVGDRVTITCRASQVITNNLAWYQQKPGKAPKLLIYDASTLETGVPSRFSGSGSGTDFTLTISSLQPEDFATYYCQQSYTFPYTFGQGTKVEIK | 72 |

Biological target: T1, SARS-CoV-2 Spike receptor binding …
Experiment: BLI
Conditions: both partners purified

| Binder | binding result |
| --- | --- |
| mAb 298, full-length IgG (antibody, V domains shown, also called IgG 298; antibody 298) VH: QVQLVQSGAEVKKPGASVKVSCKASGGTFSTYGISWVRQAPGQGLEWMGWISPNSGGTDLAQKFQGRVTMTRDTSTSTVYMELSSLRSEDTAVYYCASDPRDDIAGGYWGQGTLVTVSS VL: not shown | binds |
| mAb 80, full-length IgG (antibody, V domains shown) VH: QVQLVQSGAEVKKPGSSVKVSCKASGGTFNRYAFSWVRQAPGQGLEWMGGIIPIFGTANYAQKFQGRVTITADESTSTAYMELSSLRSEDTAVYYCARSTRELPEVVDWYFDLWGRGTLVTVSS VL: not shown | binds |
| mAb 324, full-length IgG (antibody, V domains shown) VH: QVQLVQSGAEVKKPGASVKVSCKASGGTFNNYGISWVRQAPGQGLEWMGWMNPNSGNTGYAQKFQGRVTMTRDTSTSTVYMELSSLRSEDTAVYYCARVGDYGDYIVSPFDLWGRGTLVTVSS VL: DIQMTQSPSSLSASVGDRVTITCRASQSITTYLNWYQQKPGKAPKLLIYDASNLETGVPSRFSGSGSGTDFTLTISSLQPEDFATYYCQQSYSTPPTFGQGTKVEIK | binds |
| mAb 82, full-length IgG (antibody, V domains shown) VH: QVQLVQSGAEVKKPGASVKVSCKASGGSFSTSAFYWVRQAPGQGLEWMGWINPYTGGTNYAQKFQGRVTMTRDTSTSTVYMELSSLRSEDTAVYYCARSRALYGSGSYFDYWGQGTLVTVSS VL: DIQMTQSPSSLSASVGDRVTITCRASQVISNYLAWYQQKPGKAPKLLIYDASNLETGVPSRFSGSGSGTDFTLTISSLQPEDFATYYCQQSFSPPPTFGQGTRLEIK | binds |
| mAb 46, full-length IgG (antibody, V domains shown, also called antibody 46) VH: EVQLLESGGGLVQPGRSLRLSCAASGFTFSSYAMSWVRQAPGKGLEWVSTIYSGGSTYYADSVKGRFTISRDNSKNTLYLQMNSLRAEDTAVYYCARGDSRDAFDIWGQGTMVTVSS VL: DIQMTQSPSSLSASVGDRVTITCRASQSISSWLAWYQQKPGKAPKLLIYDASNLETGVPSRFSGSGSGTDFTLTISSLQPEDFATYYCQQSYSTPFTFGPGTKVDIK | binds |
| mAb 52, full-length IgG (antibody, V domains shown, also called antibody 52) VH: QVQLVQSGAEVKKPGSSVKVSCKASGYTFTSYGISWVRQAPGQGLEWMGGIIPMFGTTNYAQKFQGRVTITADKSTSTAYMELSSLRSEDTAVYYCARDRGDTIDYWGQGTLVTVSS VL: DIQMTQSPSSLSASVGDRVTITCRASQGISNNLNWYQQKPGKAPKLLIYAASSLESGVPSRFSGSGSGTDFTLTISSLQPEDFATYYCQQGNGFPLTFGPGTKVDIK | binds |
| mAb 236, full-length IgG (antibody, V domains shown) VH: QVQLVQSGAEVKKPGASVKVSCKASGGTFTSYGINWVRQAPGQGLEWMGWMNPNSGNTGYAQKFQGRVTMTRDTSTSTVYMELSSLRSEDTAVYYCASRGIQLLPRGMDVWGQGTTVTVSS VL: not shown | binds |

Biological target: T1, SARS-CoV-2 Spike receptor binding …
Experiment: cryo-EM structure
Conditions: both partners purified

| Binder | binding result |
| --- | --- |
| Fab 46 (Fab, V domains shown) VH: EVQLLESGGGLVQPGRSLRLSCAASGFTFSSYAMSWVRQAPGKGLEWVSTIYSGGSTYYADSVKGRFTISRDNSKNTLYLQMNSLRAEDTAVYYCARGDSRDAFDIWGQGTMVTVSS VL: DIQMTQSPSSLSASVGDRVTITCRASQSISSWLAWYQQKPGKAPKLLIYDASNLETGVPSRFSGSGSGTDFTLTISSLQPEDFATYYCQQSYSTPFTFGPGTKVDIK | binds |

Biological target: T1, SARS-CoV-2 Spike receptor binding …
Experiment: crystal structure
Conditions: both partners purified

| Binder | binding result |
| --- | --- |
| Fab 298 (Fab, V domains shown, also called 298 Fab) VH: QVQLVQSGAEVKKPGASVKVSCKASGGTFSTYGISWVRQAPGQGLEWMGWISPNSGGTDLAQKFQGRVTMTRDTSTSTVYMELSSLRSEDTAVYYCASDPRDDIAGGYWGQGTLVTVSS VL: not shown | binds |
| Fab 52 (Fab, V domains shown, also called 52 Fab) VH: QVQLVQSGAEVKKPGSSVKVSCKASGYTFTSYGISWVRQAPGQGLEWMGGIIPMFGTTNYAQKFQGRVTITADKSTSTAYMELSSLRSEDTAVYYCARDRGDTIDYWGQGTLVTVSS VL: DIQMTQSPSSLSASVGDRVTITCRASQGISNNLNWYQQKPGKAPKLLIYAASSLESGVPSRFSGSGSGTDFTLTISSLQPEDFATYYCQQGNGFPLTFGPGTKVDIK | binds |
